Assay results reported in patent US20240352438A1, “MEANS AND METHODS FOR DETOXIFYING OCHRATOXIN A” (DSM Austria GmbH, priority 2021, published 2024).
Numbering of substitutions follows the chain as printed.

B1: 160 (protein)
chain: MTTRTRILTAFLSLLAANACAADAAPAAPHTVVLRAARMFDGASGKLVDHPQLTIVGNKIVRIAQGDKAEVPAGAEVVDLGDATLLPGFIDAHVHLSGQSSDNWYGDFFDNMMRFPAEQALYGAYYARITLEAGFTSVRDVGSTDWVALGLRNAIDAGKVPGPRMLVSNYAVGSTGGHADQDPIPPHKLPLAGPLQGVCNGPEECRAAVRYQIKYGANVIKFMPSGGVLSLSDPVDAPELSQDEMNAVIGESHAWGRKVAAHAHGDKAAKMAVAAGVDSIEHGSFIEDDTLRAMKAKNVYLVPTISAVAHVEEKIGTYPPVIAEKGRAAAAHLRQTFRHAVQIGVPIALGTDAGVGAHGSNAREFRYMVENGLTPAQALLAGTANAARLLGTFDRVGTLEAGKLADVVAVPGNPIADITVTERPLFVMKDGVVVRRDAVR
modifications: exemplary polypeptide
B2: 232 (protein)
chain: B1 chain with D233Q, V308I, Y318F
modifications: exemplary polypeptide
B3: 166 (protein)
chain: B1 chain with A171P, I184V, V308I
modifications: exemplary polypeptide
B4: 162 (protein)
chain: B1 chain with Y318F, G354A
modifications: exemplary polypeptide
B5: 164 (protein)
chain: B1 chain with A171P, I184V, V308A, Y318F
modifications: exemplary polypeptide
B6: 165 (protein)
chain: B1 chain with A171P, I184V, Y318F
modifications: exemplary polypeptide
B7: 169 (protein)
chain: B1 chain with A171P
modifications: exemplary polypeptide
B8: 163 (protein)
chain: B1 chain with V308I, G354A
modifications: exemplary polypeptide
B9: 167 (protein)
chain: B1 chain with A171P, I184V, V308I, Y318F, G354A
modifications: exemplary polypeptide
B10: 168 (protein)
chain: B1 chain with A171P, V308A
modifications: exemplary polypeptide
B11: 135 (protein)
chain: B1 chain with Y300C, V308I, Y318F, L389C
modifications: exemplary polypeptide
B12: 102 (protein)
chain: B1 chain with M112W, V308I, Y318F
modifications: exemplary polypeptide
B13: 126 (protein)
chain: B1 chain with H253E, D278R, V308I, Y318F
modifications: exemplary polypeptide
B14: 117 (protein)
chain: B1 chain with F108Y, V308I, Y318F
modifications: exemplary polypeptide
B15: 109 (protein)
chain: B1 chain with V308I, K314Q, Y318F
modifications: exemplary polypeptide
B16: 133 (protein)
chain: B1 chain with A307V, V308I, Y318F
modifications: exemplary polypeptide
B17: 110 (protein)
chain: B1 chain with V308I, K314E, Y318F
modifications: exemplary polypeptide
B18: 149 (protein)
chain: B1 chain with A179T, V308I, Y318F
modifications: exemplary polypeptide
B19: 104 (protein)
chain: B1 chain with I184F, V308I, Y318F
modifications: exemplary polypeptide
B20: 118 (protein)
chain: B1 chain with M113Q, V308I, Y318F
modifications: exemplary polypeptide
B21: 142 (protein)
chain: B1 chain with G142P, V308I, Y318F
modifications: exemplary polypeptide
B22: 134 (protein)
chain: B1 chain with N111D, V308I, Y318F
modifications: exemplary polypeptide
B23: 129 (protein)
chain: B1 chain with S100C, V308I, T317C, Y318F
modifications: exemplary polypeptide

test: Enzymatic activity comparison: activity remaining after 65° C. for 10 min at pH 6.0, relative to SEQ ID NO: 1; format: physicochemical; details: not given
Experimental: To compare the temperature behavior and thermostability of selected enzymes to one another, enzyme was incubated at 65° C. for 10 min at pH 6.0. The enzymatic activity remaining after incubation was compared to the remaining activity of the enzyme of SEQ ID NO: 1 after incubation, the latter being set to 100%, see Table 16.

| Molecule | Enzymatic activity remaining after incubation, compared to SEQ ID NO: 1 (set to 100%) [%] |
| --- | --- |
| B1 | 30 |
| B2 | 25 |
| B3 | 37 |
| B4 | 7 |
| B5 | 15 |
| B6 | 33 |
| B7 | 30 |
| B8 | 17 |
| B9 | 26 |
| B10 | 48 |

test: OTA detoxification activity assay (specific activity, fluorescence reduction ex/em 390/450 nm); format: biochemical; details: pH 6.0; SEQ ID NO: 1 = 100%
Experimental: To determine the specific activity of recombinant target polypeptides produced e.g. as described in Example 2 above in units per liter (U/L), ochratoxin A (OTA) detoxification activity assays were performed. One unit is defined as the amount of enzyme necessary for degradation of 1 μmol or OTA in 1 min when using a starting OTA concentration of […].
OTA detoxification activity assays were set up in a final volume of the reaction mixture of […], containing the recombinant enzyme preparation (preferably diluted to yield a volumetric activity of 1-10 mU/L), and 200 ng/mL OTA in 100 mM sodium phosphate buffer.
Specific activities were determined at pH 6.0 and pH 7.5. As soon as all components of the reaction mixture were mixed, OTA degradation was followed at 37° C. on a fluorescence spectrophotometer (BioTek Synergy H1 MFD Multimode microplate reader) by following the reduction in fluorescence at ex/em 390 nm/450 nm. For work performed at pH 6.0 and 7.5, a 100 mM sodium phosphate buffer was used.
For calculation of the specific activity, the initial linear part of the recorded fluorescence reduction curve was used. In addition to the fluorescence-based method described above, OTA degradation was also determined by using the HPLC-MS method as described by Dellafiora et al. 2020, Toxins 12, 258, essentially confirming the fluorescence-based results. Genes encoding either of the indicated SEQ ID NOs are expressed as described herein and the specific activities for the obtained polypeptide preparation are exemplarily shown in Table 8. Analogously, enzymatic activities using either ochratoxin B, C or TA as substrate or can be found.

| Molecule | Specific OTA detoxification activities in % compared to the enzyme of SEQ ID NO: 1, pH 6.0 [%] |
| --- | --- |
| B1 | 78 |
| B11 | 68 |
| B12 | 50 |
| B13 | 63 |
| B14 | 40 |
| B3 | 72 |
| B15 | 74 |
| B16 | 23 |
| B17 | 33 |
| B4 | 191 |
| B5 | 29 |
| B6 | 46 |
| B18 | 30 |
| B7 | 50 |
| B8 | 145 |
| B9 | 54 |
| B19 | 102 |
| B20 | 26 |
| B10 | 41 |
| B21 | 34 |
| B22 | 41 |
| B23 | 51 |

same assay, conditions: pH 7.5; SEQ ID NO: 1 = 100%

| Molecule | Specific OTA detoxification activities in % compared to the enzyme of SEQ ID NO: 1, pH 7.5 [%] |
| --- | --- |
| B1 | 84 |
| B11 | 70 |
| B12 | 89 |
| B13 | 75 |
| B14 | 80 |
| B3 | 68 |
| B15 | 107 |
| B16 | 27 |
| B17 | 48 |
| B4 | 124 |
| B5 | 63 |
| B6 | 71 |
| B18 | 13 |
| B7 | 45 |
| B8 | 112 |
| B9 | 73 |
| B19 | 71 |
| B20 | 22 |
| B10 | 62 |
| B21 | 8 |
| B22 | 52 |
| B23 | 83 |
